These results are taken from patent publication US20210324417A1 (RESEARCH INSTITUTE AT NATIONWIDE CHILDREN S HOSPITAL, published 2021).

This assay has as its target neuropilin-1 (NRP1) (mouse (endogenous protein of the mouse …, UniProt P97333 22-923)). The assay can be described thus: co-immunoprecipitation with anti-NRP1 antibody from NSC-34 lysates, anti-V5 Western blot. As to the method:
Cells were grown to 70% confluency before transfection. A human wild-type, P234KY, or ΔETAQ GARS cDNA was cloned into the pcDNA6 plasmid to express GARS in-frame with a V5 tag. Transfections were performed using Lipofectamine 2000 (Invitrogen) according to the manufacturer's instruction. For cell lysate preparations, NSC-34 cells (36 hours after transfection) were washed twice in phosphate-buffered saline (PBS), scraped into PBS, pelleted, and resuspended in Pierce IP Lysis Buffer (Thermo Scientific) for 30 min and centrifuged for 7 min at 12,000×g; the insoluble fraction was discarded. Protein G beads (Invitrogen) were pre-incubated with anti-NRP1 antibody (Abcam) or rabbit IgG (Cell signaling) for 30 min before mixed with the cell lysates for overnight. […] Wild-type and mutant GARS proteins were detected using mouse monoclonal V5 antibody purchased from Invitrogen. NRP1 was detected by utilizing the same antibody for co-immunoprecipitation. […]
After immunoprecipitation with an anti-NRP1 antibody, proteins were subjected to Western blot analysis using an anti-V5 antibody. […] Nevertheless, no interaction between ΔETAQ GARS and NRP1 was detected in unbiased mass spectrometry analyses of proteins immuno-precipitated from mouse neuroblastoma (MN1) cells expressing FLAG-tagged wild-type or V5-tagged ΔETAQ GARS.

B1: V5-tagged wild-type human GARS (glycyl-tRNA synthetase) (enzyme, UniProt P41250-2 1-685, looked up)
chain: MDGAGAEEVLAPLRLAVRQQGDLVRKLKEDKAPQVDVDKAVAELKARKRVLEAKELALQPKDDIVDRAKMEDTLKRRFFYDQAFAIYGGVSGLYDFGPVGCALKNNIIQTWRQHFIQEEQILEIDCTMLTPEPVLKTSGHVDKFADFMVKDVKNGECFRADHLLKAHLQKLMSDKKCSVEKKSEMESVLAQLDNYGQQELADLFVNYNVKSPITGNDLSPPVSFNLMFKTFIGPGGNMPGYLRPETAQGIFLNFKRLLEFNQGKLPFAAAQIGNSFRNEISPRSGLIRVREFTMAEIEHFVDPSEKDHPKFQNVADLHLYLYSAKAQVSGQSARKMRLGDAVEQGVINNTVLGYFIGRIYLYLTKVGISPDKLRFRQHMENEMAHYACDCWDAESKTSYGWIEIVGCADRSCYDLSCHARATKVPLVAEKPLKEPKTVNVVQFEPSKGAIGKAYKKDAKLVMEYLAICDECYITEMEMLLNEKGEFTIETEGKTFQLTKDMINVKRFQKTLYVEEVVPNVIEPSFGLGRIMYTVFEHTFHVREGDEQRTFFSFPAVVAPFKCSVLPLSQNQEFMPFVKELSEALTRHGVSHKVDDSSGSIGRRYARTDEIGVAFGVTIDFDTVNKTPHTATLRDRDSMRQIRAEISELPSIVQDLANGNITWADVEARYPLFEGQETGKKETIEE
notes: Expressed by transfection in mouse NSC-34 cells and tested from the cell lysate; also called wild-type GARS; WT GARS; not shown: V5 tag expressed in-frame from pcDNA6
As for B1, the binding result is listed as “no binding”.
